Experimental findings from patent US6096512 are described below.

Some results are limits rather than exact numbers.

For experiment [1], the target named is bovine cytochrome C, native (bovine) (UniProt P62894).
Experiment [2] deals with bovine cytochrome C, reduced and carboxymethylated (bovine) (UniProt P62894).
Experiment [3] deals with T1, bovine rhodanese, native (bovine) (UniProt P00586).
T1 sequence: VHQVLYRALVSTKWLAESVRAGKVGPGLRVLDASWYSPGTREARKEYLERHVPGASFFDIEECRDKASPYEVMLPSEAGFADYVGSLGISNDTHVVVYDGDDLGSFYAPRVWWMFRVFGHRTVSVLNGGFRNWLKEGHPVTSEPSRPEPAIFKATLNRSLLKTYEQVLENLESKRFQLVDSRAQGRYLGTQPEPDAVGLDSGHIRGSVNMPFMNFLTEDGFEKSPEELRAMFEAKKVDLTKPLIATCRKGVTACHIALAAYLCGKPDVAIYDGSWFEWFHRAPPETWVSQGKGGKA

The target of experiment [4] is T2, bovine rhodanese, reduced and carboxymethylated (bovine) (UniProt P00586).
T2 sequence (chain, reduced and carboxymethylated): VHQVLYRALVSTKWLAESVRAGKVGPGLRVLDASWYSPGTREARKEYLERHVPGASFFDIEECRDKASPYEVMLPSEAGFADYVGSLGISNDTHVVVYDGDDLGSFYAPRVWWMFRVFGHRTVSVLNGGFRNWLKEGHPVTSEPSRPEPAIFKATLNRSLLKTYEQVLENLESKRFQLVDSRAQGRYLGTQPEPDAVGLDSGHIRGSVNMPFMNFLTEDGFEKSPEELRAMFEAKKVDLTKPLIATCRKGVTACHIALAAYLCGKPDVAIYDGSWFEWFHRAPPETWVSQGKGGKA

The target of experiment [5] is subtilisin, reduced and carboxymethylated.
The target of experiment [6] is T3, synthetic acceptor peptide Arg-Ser-Pro-Pro-Pro.
T3 sequence (peptide): RSPPP

Experiment [7] has as its target T4, synthetic acceptor peptide Arg-Thr-Pro-Pro-Pro.
T4 sequence (peptide): RTPPP

For experiment [8], the target named is synthetic acceptor peptide Pro-Pro-Ala-D-Ser-Thr-D-Ser-Ala-Pro-Gly.

B1: bovine colostrum UDP-GalNAc:polypeptide, N-acetylgalactosaminyltransferase (purified soluble enzyme) (enzyme)
chain: GLPAGDVLEPVQKPHEGPGEMGKPVVIPKEDQEKMKEMFKINQFNLMASEMIALNRSLPDVRLEGCKTKVYPDNLPTTSVVIVFHNEAWSTLLRTVHSVINRSPRHMLEEIVLVDDASERDFLKRPLESYVKKLKVPVHVIRMEQRSGLIRARLKGAAVSKGQVITFLDAHCECTVGWLEPLLARIKHDRKTVVCPIIDVISDDTFEYMAGSDMTYGGFNWKLNFRWYPVPQREMDRRKGDRTLPVRTPTMAGGLFSIDRDYFQEIGTYDAGMDIWGGENLEISFRIWQCGGTLEIVTCSHVGHVFRKATPYTFPGGTGQIINKNNRRLAEVWMDEFKNFFYIISPGVTKVDYGDISSRLGLRHKLQCRPFSWYLENIYPDSQIPRHYFSLGEIRNVETNQCLDNMARKENEKVGIFNCHGMGGNQVFSYTANKEIRTDDLCLDVSKLNGPVTMLKCHHLKGNQLWEYDPVKLTLQHVNSNQCLDKATDEDSQVPSIRDCSGSRSQQWLLRNVTLPEIF
As to B1, the Product formed nmol/min/mg (transfer of N-acetylgalactosamine to protein acceptors) is below 0.1 nmol/min/mg in experiment [1]; below 0.1 nmol/min/mg in [2]; below 0.1 nmol/min/mg in [3]; 3.3 nmol/min/mg in [4]; 22.2 nmol/min/mg with myelin basic protein; below 0.1 nmol/min/mg with subtilisin, native. Moreover, the Product formed nmol/min/mg (transfer of N-acetylgalactosamine to protein acceptors) in experiment [5] was determined as 0.6 nmol/min/mg. For the same molecule, the figures for the Vmax /Km M^-1 s^-1 in [6], in [7] and in experiment [8] were 0.4 M⁻¹ s⁻¹, 183 M⁻¹ s⁻¹ and 1.2 M⁻¹ s⁻¹, respectively. The Km in [7] worked out at 3.3 mM.

For orientation: Km means the concentration of substrate that gives half-maximal velocity.
